To fix the notation:
B1: MBP fused with β-spectrin residues 1885-1992 (other, UniProt Q01082 1885-1992, looked up, not shown: large carriers)
chain: RENEVLEAWKSLLDACESRRVRLVDTGDKFRFFSMVRDLMLWMEDVIRQIEAQEKPRDVSSVELLMNNHQGIKAEIDARNDSFTTCIELGKSLLARKHYASEEIKEKL
B2: CD44 (conserved cytoplasmic domain, last 70 residues) (other, UniProt P16070 673-742, looked up, not shown: large carriers)
chain: RRRCGQKKKLVINSGNGAVEDRKPSGLNGEASKSQEMVHLVNKESSETPDQFMTADETRNLQNVDMKIGV
notes: domain: conserved cytoplasmic domain, last 70 residues; Unrelated control protein in the two-hybrid filter assay
B3: GAL4 activation domain alone (pGADGH, no insert) (other, UniProt P04386 768-881, looked up)
chain: ANFNQSGNIADSSLSFTFTNSSNGPNLITTQTNSQALSQPIASSNVHDNFMNNEITASKIDDGNNSKPLSPGWTDQTAYNAFGITTGMFNTTTMDDVYNYLFDDEDTPPNPKKE
notes: Negative control
B4: MBP fused with β-spectrin residues 1885-1967 (other, UniProt Q01082 1885-1967, looked up, not shown: large carriers)
chain: RENEVLEAWKSLLDACESRRVRLVDTGDKFRFFSMVRDLMLWMEDVIRQIEAQEKPRDVSSVELLMNNHQGIKAEIDARNDSF
B5: glutathione-S-transferase fusion of the C-terminal domain of schwannomin isoform 1 (GSTNF2CL, schwannomin residues 469-595) (other)
chain: KQKLLEIATKPTYPPMNPIPAPLPPDIPSFNLIGDSLSFDFKDTDMKRLSMEIEKEKVEYMEKSKHLQEQLNELKTEIEALKLKERETALDILHNENSDRGGSSKHNTIKKLTLQSAKSRVAFFEEL
notes: Expressed in E. coli DH5α, purified on Sepharose 4B-glutathione; predicted 40.0 kDa; also called isoform 1 C-terminal domain GST fusion; not shown: Glutathione-S-transferase of pGEX-5X-1 and its linker

The target in assay [1] is B5. In words: pull-down on amylose resin, Western blot. Here is the method: (§1) Purified MBP or MBP fusions were incubated with fresh amylose resin for 5 minutes at room temperature and 2.5 minutes at 4° C. in column buffer (20 mM Tris-HCl, pH 7.4, 200 mM NaCl, 1 mM EDTA, 2 μg/ml aprotinin, 0.5 mg/ml Perfabloc SC), and washed three times with binding buffer (160 mM NaCl, 2.5 mM MgCl₂, 1.5 mM CaCl₂, […], 50 mM hepes, pH 7.4, 1% Triton X-100, 2 μg/ml aprotinin, and 0.5 mg/ml Pefabloc SC). Saturated amylose resin was incubated with equivalent amounts of GSTNF2CL or GSTNF2I2CL for 20 min at 4° C. and washed three times with binding buffer. The quantities were normalized by conducting dot blots of serial dilutions detected with anti-GST antibody (Pharmacia). Western blot analysis was conducted as described using affinity purified rabbit anti-spectrin (Sigma S1515), and anti-schwannomin (Ab5990, recognizes C-terminal domain) polyclonal antibodies (Huynh and Pulst (1996)).
(§2) Glutathione-S-transferase (GST) fusions were purified with the C-terminal domain of schwannomin isoform 1 (GSTNF2CL, schwannomin residues 469-595) or isoform 2 (GSTNF2I2CI, schwannomin residues 469-590). When the MBPSp-amylose resin was incubated with schwannomin-GST fusion proteins, the proteins eluted from the washed resin were recognized by an anti-schwannomin antibody (Ab5990). […]
For orientation: Immunoblotting shows a protein as a band on a membrane.

In assay [2] the target is T1, full-length schwannomin isoform 1 fused to the GAL4 binding domain (pGBT9NF2, residues 1-595) (Homo sapiens (Human), UniProt P35240 1-595).
T1 construct: Yeast two-hybrid bait; also called pGPT9NF2; GAL4-NF2
T1 sequence: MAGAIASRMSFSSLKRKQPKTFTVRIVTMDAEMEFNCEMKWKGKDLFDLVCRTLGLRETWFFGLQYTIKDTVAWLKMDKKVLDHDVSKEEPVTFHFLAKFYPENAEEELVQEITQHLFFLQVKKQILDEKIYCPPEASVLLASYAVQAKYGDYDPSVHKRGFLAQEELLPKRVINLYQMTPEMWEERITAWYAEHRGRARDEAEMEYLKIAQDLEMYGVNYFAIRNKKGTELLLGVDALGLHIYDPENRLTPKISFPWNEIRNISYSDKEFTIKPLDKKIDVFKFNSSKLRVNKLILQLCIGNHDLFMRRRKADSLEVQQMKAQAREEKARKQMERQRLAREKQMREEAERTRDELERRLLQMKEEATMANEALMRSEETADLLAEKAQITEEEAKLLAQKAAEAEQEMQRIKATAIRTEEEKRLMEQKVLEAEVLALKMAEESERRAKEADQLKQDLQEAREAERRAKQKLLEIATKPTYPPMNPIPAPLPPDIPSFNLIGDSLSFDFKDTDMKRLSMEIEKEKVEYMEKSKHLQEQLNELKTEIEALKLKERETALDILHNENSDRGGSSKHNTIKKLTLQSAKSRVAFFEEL
Kind of assay: yeast two-hybrid, β-galactosidase filter assay. An excerpt:
Double-transformant pGBT9NF2I2CL and pGAD10Sp is weakly positive for β-galactosidase in the filter assay; the trace blue color is not visible in the photo. Right: Histogram illustrating results of semiquantitative liquid assays for β-galactosidase activity (Poullet and Tamanio, Methods in Enzymol. 255:488-497 (1995)). Three controls are included: pGBT9NF1 and pGADGHRas, negative pGBT9NF2 and PGADGH, negative pGBT9 and pGAD105p. β-Galactosidase units=1000×[OD₄₂₀/(OD₆₀₀×times×culture volume)]. Bars show mean and standard deviation of three replicate clones from one transformation. Except for pGBT9NF2C and pGBT9NF2I2C, liquid assays for each construct were conducted at the same time, and for all constructs, the same clones were used in filter assays, and results were reproducible. FIG. 1(B) Control β-galactosidase filter assays of indicated double transformants showing high activity for a known positive interaction between NF1 and Ras (Poullet and Tamanio, (1995)), no detectable interaction between GAL4-NF2 and an unrelated protein, CD44 (conserved cytoplasmic domain, last 70 residues), and no detectable interaction between other negative controls. […]

For assay [3], the target named is T1, full-length schwannomin isoform 1 fused …. In words: yeast two-hybrid, liquid β-galactosidase assay, control.
Assay [4] has as its target maltose binding protein (MBP) with no fusion protein (UniProt P0AEX9 27-392 = MBP). Kind of assay: pull-down on amylose resin, Western blot with Ab5990. Here is the method: as §1, §2

In the case of B1, the binding result in assay [1] was “no binding”. Consider B2, for which, in assay [2], the binding result was “no binding”. Regarding B3, in assay [3], the binding result is on record as “no binding”.

As to B4, the binding result in assay [1] was “no binding”. As for B5, the binding result in assay [4] is “no binding”.

The record behind these values is patent US20060199195A1 (CEDARS SINAI MEDICAL CENTER, published 2006).
